B1: E-cadherin residues 854-869 (site-3) [mouse] / Ankyrin-G 24 ANK repeats (residues 38-855) [not stated] (parent complex)
chain 1: ESDQDQDYDYLNEWGN
chain 2: KSDANASYLRAARAGHLEKALDYIKNGVDVNICNQNGLNALHLASKEGHVEVVSELLQREANVDAATKKGNTALHIASLAGQAEVVKVLVTNGANVNAQSQNGFTPLYMAAQENHLEVVRFLLDNGASQSLATEDGFTPLAVALQQGHDQVVSLLLENDTKGKVRLPALHIAARKDDTKAAALLLQNDTNADIESKMVVNRATESGFTPLHIAAHYGNINVATLLLNRAAAVDFTARNDITPLHVASKRGNANMVKLLLDRGAKIDAKTRDGLTPLHCGARSGHEQVVEMLLDRAAPILSKTKNGLSPLHMATQGDHLNCVQLLLQHNVPVDDVTNDYLTALHVAAHCGHYKVAKVLLDKKANPNAKALNGFTPLHIACKKNRIRVMELLLKHGASIQAVTESGLTPIHVAAFMGHVNIVSQLMHHGASPNTTNVRGETALHMAARSGQAEVVRYLVQDGAQVEAKAKDDQTPLHISARLGKADIVQQLLQQGASPNAATTSGYTPLHLSAREGHEDVAAFLLDHGASLSITTKKGFTPLHVAAKYGKLEVASLLLQKSASPDAAGKSGLTPLHVAAHYDNQKVALLLLDQGASPHAAAKNGYTPLHIAAKKNQMDIATSLLEYGADANAVTRQGIASVHLAAQEGHVDMVSLLLSRNANVNLSNKSGLTPLHLAAQEDRVNVAEVLVNQGAHVDAQTKMGYTPLHVGCHYGNIKIVNFLLQHSAKVNAKTKNGYTPLHQAAQQGHTHIINVLLQNNASPNELTVNGNTALAIARRLGYISVVDTLKVVTEEIMTTTTITEKHKMNVPETMNEVLDMS
B2: E-cadherin residues 828-842 (site-2) [mouse] / Ankyrin-G 24 ANK repeats (residues 38-855) [not stated] (parent complex)
chain 1: PYDSLLVFDYEGSGS
chain 2: B1 chain 2
B3: E-cadherin residues 755-770 (site-1) [mouse] / Ankyrin-G 24 ANK repeats (residues 38-855) [not stated] (parent complex)
chain 1: YYYDEEGGGEEDQDFD
chain 2: B1 chain 2

Here are results for twelve variants from publication PMC10611751 (2023).

As usually defined, the Kd is the free concentration of one partner at which half of the binding sites on the other are occupied at equilibrium, for simple one-to-one binding.

The variants in one test derive from B1. In words: ITC; parent: 1.8e+03 nM. For orientation: Isothermal titration calorimetry measures the heat released or taken up as one component is titrated into another.
Consider chain 1 Y8A, for which the Kd came out at 3.2 µM.
For the variant chain 1 W14A, the dissociation constant (Kd) was determined as 3.9 µM.
The same measure, in the same setting: for chain 1 Y8A, chain 1 Y10A the value was 5.8 µM; for chain 1 Y10A, 3.9 µM.

Variants of B2 are the subject of the next test. The test can be described thus: ITC; parent: 1.9e+03 nM.
On to chain 1 Y2A, for which the Kd was 1.7 µM.
The same measure, in the same setting: for chain 1 Y10A the value was 9.5 µM.

The variants in the next test derive from B3. The test can be described thus: ITC; parent: 900 nM.
chain 1 Y3A: the Kd worked out at 2.2 µM.
Turning to chain 1 Y1A, the Kd is 5 µM.
Still for that read-out and setting: for chain 1 Y2A, chain 1 Y3A the value was 7.1 µM.
On the same count and under the same terms, the result for chain 1 Y2A reads 2.2 µM.
As for chain 1 Y1A, chain 1 Y3A, the Kd amounted to 4.1 µM.
Still for that read-out and setting: the result for chain 1 Y1A, chain 1 Y2A reads 4.2 µM.
